According to US20240352121A1, “LAIR-1 AGONISTIC ANTIBODIES AND METHODS OF USE THEREOF” (NEXTCURE, INC., priority 2023, published 2024):

Legend:
human LAIR-1 = molecular target: T1, human LAIR-1 (Homo sapiens, UniProt Q6GTX8, D63E/L98P/R92S/S123T); test: Cell binding to human LAIR-1 cells by flow cytometry; conditions: UT-140 cells
T1 construct: expressed in transfected cells
T1 sequence (Q6GTX8 22-287 D63E/R92S/L98P/S123T): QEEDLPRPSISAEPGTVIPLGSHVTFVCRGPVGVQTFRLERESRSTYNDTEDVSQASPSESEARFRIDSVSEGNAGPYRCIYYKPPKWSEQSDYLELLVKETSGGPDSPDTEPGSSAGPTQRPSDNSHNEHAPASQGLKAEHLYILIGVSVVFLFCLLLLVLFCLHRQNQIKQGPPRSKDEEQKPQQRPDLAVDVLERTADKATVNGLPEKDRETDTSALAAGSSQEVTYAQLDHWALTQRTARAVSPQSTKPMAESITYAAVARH
Protocol: FIGS. 21A-21B display LAIR-1 binding properties including h11B3 LAIR-1 mAbs binding to cells expressing human LAIR-1 or cynomolgus LAIR-1 as measured by flow cytometry. The h11B3 LAIR-1 mAbs include a variable light chain of SEQ ID NO: 16 and a variable heavy chain of SEQ ID NO: 21, as shown for Anti-LAIR-1 Variant 6 in Table 1 herein. […] Cells were incubated for 30 min on ice with titrated concentrations of h11B3. AF647 conjugated secondary antibody was used at 1:2000 dilution. […] Cells were incubated for 30 min on ice with titrated concentrations of h11B3. AF647 conjugated secondary antibody was used at 1:2000 dilution.
For cell binding assays, 5e4 UT-140 cells or mouse LAIR-1-transfected 293T cells per well were plated in 200 μL PBS in a 96-well round bottom plate, centrifuged for 4 minutes at 500×g for a single wash, and blocked for 10 minutes on ice with flow cytometry buffer (PBS+2% FBS+0.1 mM EDTA) containing 1:50 dilution of TruStain™ Fc block (Biolegend, San Diego, CA). Cells were subsequently stained for 30 min on ice with titrated concentrations of soluble AF647-labeled LAIR-1 mAb or AF647-labeled isotype control. Cells were then washed 3 times as previously described and binding was measured by flow cytometry using an Attune NXT flow cytometer. […] GFP expression was measured by flow cytometry using an Attune NXT Flow Cytometer.

[1] = test system: LSCs within the bone-marrow of PDX donor animals; test: PDX secondary transplant model; type: in vivo, NSG-SGM3 mice; conditions: bone-marrow from PDX donors treated for 4 weeks; no further treatment
Protocol: Newborn (3-5 day from birth) NSG-SGM3 pups were sub-lethally (200 cGy) irradiated. 12 hours post-irradiation, mice were intra-hepatically transplanted with 0.2e6 AML bone-marrow cells or normal CD34 HSCs from cryopreserved stocks. 6 weeks post-transplant, blood was collected to assess engraftment of progenitor cells via flow cytometry, staining for human CD45, human CD33, and human CD3. Once engraftment of human cells was confirmed, 5 mg/kg of anti-human LAIR-1 mAb or isotype control was intraperitoneally injected weekly for a total of 4 doses. At the indicated timepoints post-treatment, blood was collected to assess the proliferation of AML cells as a measure of LAIR-1 mAb anti-leukemic activity as compared to isotype control. For standard-of-care combination studies, PDX mice were treated with 20 mg/kg venetoclax 5 days on and 2 days off for 5 weeks, and X 1.5 mg/kf-tiw azacytidine upfront one week only. LAIR-1 mAb was treated i.p. once per week for 5 weeks. Blood was harvested as described above to measure leukemic growth and spleens were harvested at endpoint and weighed for assessment of splenomegaly. For secondary transplant studies, mice were engrafted as above. […] Leukemia progression in recipient mice was measured by flow cytometry by quantifying the percent of human CD33^+ human CD45^+ cells in peripheral blood at weeks 4, 6, and 10 weeks post-transplant.

B1: LAIR-1 mAb: humanized agonist anti-LAIR-1 mAb, IgG1 backbone; h11B3 VL-2 (SEQ ID NO: 16), h11B3 VH-3 (SEQ ID NO: 27) (antibody, V domains shown)
VH: EVQLVESGGGLVQPGGSLKLSCAASGFTFNTNAMYWVRQAPGKGLEWVGRIRSKSSNYATYYAASVKGRFTISRDDSKNTLYLQMNSLKTEDTAVYYCVRGGSGFFAYWGQGTLVTVSS
VL: DIQMTQSPSSLSASLGDRVTITCKASEDIYIRLAWYQQKPGKAPRLLISTATSLETGVPSRFSGSGSGTDYTFTISSLQPEDIATYYCQQYWSTPYTFGGGTRLEIK
modifications: IgG1 constant regions; Synthetic: h11B3 VH-3; Synthetic: h11B3 VL-2
binding to human LAIR-1 (human LAIR-1): specifically binds
disease development in secondary recipient mice [1]: developed no disease
